Source: patent US20150064134A1

What was measured:
Assay in all cases: cell-based or functional assay
CDK2/cyclinA(h) (human) = CDK2/cyclinA(h) (human) (UniProt P24941)
CHK1(h) (human) = target: T1, CHK1(h) (human) (UniProt O14757)
T1 sequence (looked up): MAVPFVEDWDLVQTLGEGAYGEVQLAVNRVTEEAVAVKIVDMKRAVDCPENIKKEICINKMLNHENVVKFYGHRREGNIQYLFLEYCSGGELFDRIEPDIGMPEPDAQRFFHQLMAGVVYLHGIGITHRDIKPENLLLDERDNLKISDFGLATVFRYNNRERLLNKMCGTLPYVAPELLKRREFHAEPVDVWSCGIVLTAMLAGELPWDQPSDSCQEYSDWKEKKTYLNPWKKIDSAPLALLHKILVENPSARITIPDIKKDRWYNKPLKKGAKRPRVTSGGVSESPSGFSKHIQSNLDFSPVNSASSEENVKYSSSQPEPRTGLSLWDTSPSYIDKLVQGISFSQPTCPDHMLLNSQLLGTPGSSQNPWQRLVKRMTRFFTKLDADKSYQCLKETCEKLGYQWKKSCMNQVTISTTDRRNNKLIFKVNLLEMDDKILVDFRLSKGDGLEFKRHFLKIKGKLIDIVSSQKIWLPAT

CSK(h) (human) = CSK(h) (human) (UniProt P41240)
Fer(h) (human) = Fer(h) (human) (UniProt P16591)
Fyn(h) (human) = Fyn(h) (human) (UniProt P06241)
IRR(h) (human) = IRR(h) (human) (UniProt P14616)
Itk(h) (human) = target: T2, Itk(h) (human) (UniProt Q08881)
T2 sequence (looked up): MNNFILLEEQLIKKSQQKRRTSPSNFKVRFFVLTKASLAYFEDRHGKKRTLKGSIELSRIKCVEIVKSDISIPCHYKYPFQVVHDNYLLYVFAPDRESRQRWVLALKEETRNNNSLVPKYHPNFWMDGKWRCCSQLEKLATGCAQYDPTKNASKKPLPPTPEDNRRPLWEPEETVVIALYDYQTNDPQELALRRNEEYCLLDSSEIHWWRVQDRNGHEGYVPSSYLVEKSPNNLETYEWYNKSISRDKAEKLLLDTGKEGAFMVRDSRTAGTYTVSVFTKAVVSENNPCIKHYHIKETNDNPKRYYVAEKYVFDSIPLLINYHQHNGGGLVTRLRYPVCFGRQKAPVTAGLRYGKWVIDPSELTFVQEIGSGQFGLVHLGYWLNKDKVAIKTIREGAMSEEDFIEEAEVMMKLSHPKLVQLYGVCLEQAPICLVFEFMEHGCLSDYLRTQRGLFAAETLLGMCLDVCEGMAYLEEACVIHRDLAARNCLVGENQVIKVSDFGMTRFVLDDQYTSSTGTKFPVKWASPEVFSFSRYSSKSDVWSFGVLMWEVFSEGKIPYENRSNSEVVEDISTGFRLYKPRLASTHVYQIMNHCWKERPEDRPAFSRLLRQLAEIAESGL

MAPK2(h) (human) = MAPK2(h) (human) (UniProt P28482)
Met(D1246N)(h) (human) = Met(D1246N)(h) (human) (UniProt P08581)
NEK2(h) (human) = target: T3, NEK2(h) (human) (UniProt P51955)
T3 sequence (looked up): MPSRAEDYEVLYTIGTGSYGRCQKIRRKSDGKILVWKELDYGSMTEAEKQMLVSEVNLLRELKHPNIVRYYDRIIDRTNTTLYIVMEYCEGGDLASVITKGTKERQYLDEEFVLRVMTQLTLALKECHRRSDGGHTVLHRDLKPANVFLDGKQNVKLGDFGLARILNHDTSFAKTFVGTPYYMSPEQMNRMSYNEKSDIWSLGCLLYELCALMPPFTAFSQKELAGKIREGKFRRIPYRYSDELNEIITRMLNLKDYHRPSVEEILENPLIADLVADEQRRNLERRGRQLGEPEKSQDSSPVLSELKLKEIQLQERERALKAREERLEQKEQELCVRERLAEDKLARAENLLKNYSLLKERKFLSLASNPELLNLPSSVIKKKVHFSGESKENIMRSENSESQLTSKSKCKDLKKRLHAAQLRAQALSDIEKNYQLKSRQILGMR

PASK(h) (human) = PASK(h) (human) (UniProt Q96RG2)
PKA(h) (human) = PKA(h) (human) (UniProt P17612)
PRAK(h) (human) = PRAK(h) (human) (UniProt Q8IW41)
PRK2(h) (human) = PRK2(h) (human) (UniProt Q16513)
SAPK3(h) (human) = target: T4, SAPK3(h) (human) (UniProt P53778)
T4 sequence (looked up): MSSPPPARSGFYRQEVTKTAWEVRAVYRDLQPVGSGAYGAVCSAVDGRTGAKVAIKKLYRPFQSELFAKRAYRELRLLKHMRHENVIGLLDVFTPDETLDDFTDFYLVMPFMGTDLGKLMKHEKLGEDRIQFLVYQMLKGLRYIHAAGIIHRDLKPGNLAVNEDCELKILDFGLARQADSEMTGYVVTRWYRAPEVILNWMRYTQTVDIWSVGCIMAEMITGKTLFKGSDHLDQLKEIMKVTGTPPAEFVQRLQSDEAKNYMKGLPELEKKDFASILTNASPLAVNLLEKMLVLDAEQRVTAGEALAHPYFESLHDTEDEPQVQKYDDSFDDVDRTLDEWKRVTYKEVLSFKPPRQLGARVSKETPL

Tie2(h) (human) = Tie2(h) (human) (UniProt Q02763)
ZIPK(h) (human) = ZIPK(h) (human) (UniProt O43293)

Chain of IRR(h) (human) (P14616 944-1297 limits assumed): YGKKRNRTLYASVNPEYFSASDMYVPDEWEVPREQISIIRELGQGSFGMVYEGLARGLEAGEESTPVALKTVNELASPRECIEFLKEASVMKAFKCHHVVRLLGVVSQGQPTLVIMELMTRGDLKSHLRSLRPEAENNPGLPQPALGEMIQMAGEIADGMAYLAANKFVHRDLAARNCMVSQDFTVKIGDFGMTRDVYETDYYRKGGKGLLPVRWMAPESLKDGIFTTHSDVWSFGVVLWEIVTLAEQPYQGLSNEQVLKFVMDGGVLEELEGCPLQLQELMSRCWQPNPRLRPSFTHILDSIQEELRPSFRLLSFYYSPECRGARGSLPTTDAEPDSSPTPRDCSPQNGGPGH
Chain of MAPK2(h) (human) (P28482 whole entry): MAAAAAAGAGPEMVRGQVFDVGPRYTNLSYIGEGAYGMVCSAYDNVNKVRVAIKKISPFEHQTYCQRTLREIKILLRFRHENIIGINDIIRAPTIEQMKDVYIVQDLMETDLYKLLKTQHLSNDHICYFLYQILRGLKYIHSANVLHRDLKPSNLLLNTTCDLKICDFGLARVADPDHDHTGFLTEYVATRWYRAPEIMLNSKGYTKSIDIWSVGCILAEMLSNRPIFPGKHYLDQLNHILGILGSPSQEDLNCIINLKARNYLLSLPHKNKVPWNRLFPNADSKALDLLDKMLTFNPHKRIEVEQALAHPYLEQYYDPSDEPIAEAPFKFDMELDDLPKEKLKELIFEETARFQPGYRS
Chain of PRAK(h) (human) (Q8IW41 whole entry): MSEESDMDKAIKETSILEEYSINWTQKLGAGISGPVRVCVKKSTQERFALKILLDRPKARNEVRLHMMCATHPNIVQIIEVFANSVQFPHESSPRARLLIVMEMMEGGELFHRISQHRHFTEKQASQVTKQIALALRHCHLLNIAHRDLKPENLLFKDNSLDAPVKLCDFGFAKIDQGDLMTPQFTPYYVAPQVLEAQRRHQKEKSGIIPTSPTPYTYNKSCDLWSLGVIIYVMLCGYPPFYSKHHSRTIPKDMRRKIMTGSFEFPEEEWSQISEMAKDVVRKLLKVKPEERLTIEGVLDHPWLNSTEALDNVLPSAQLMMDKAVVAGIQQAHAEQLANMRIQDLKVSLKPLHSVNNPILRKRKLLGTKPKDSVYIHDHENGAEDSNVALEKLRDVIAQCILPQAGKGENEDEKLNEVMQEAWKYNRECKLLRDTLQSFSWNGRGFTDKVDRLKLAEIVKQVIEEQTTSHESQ
Chain of Tie2(h) (human) (Q02763 771-1124 limits assumed): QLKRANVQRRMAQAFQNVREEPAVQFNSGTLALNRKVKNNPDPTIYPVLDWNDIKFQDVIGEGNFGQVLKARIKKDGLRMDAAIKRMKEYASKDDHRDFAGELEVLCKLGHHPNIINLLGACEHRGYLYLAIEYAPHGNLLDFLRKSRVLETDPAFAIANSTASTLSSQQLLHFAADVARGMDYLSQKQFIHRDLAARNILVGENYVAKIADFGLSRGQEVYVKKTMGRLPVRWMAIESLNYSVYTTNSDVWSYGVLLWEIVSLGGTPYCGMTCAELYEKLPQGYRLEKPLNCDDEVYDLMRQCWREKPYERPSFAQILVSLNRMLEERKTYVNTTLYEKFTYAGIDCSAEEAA

Substance	% activity at 100 µM (CDK2/cyclinA(h) (human)) [%]	% activity at 100 µM (CHK1(h) (human)) [%]	% activity at 100 µM (CSK(h) (human)) [%]	% activity at 100 µM (Fer(h) (human)) [%]	% activity at 100 µM (Fyn(h) (human)) [%]	% activity at 100 µM (IRR(h) (human)) [%]	% activity at 100 µM (Itk(h) (human)) [%]	% activity at 100 µM (MAPK2(h) (human)) [%]	% activity at 100 µM (Met(D1246N)(h) (human)) [%]	% activity at 100 µM (NEK2(h) (human)) [%]	% activity at 100 µM (PASK(h) (human)) [%]	% activity at 100 µM (PKA(h) (human)) [%]	% activity at 100 µM (PRAK(h) (human)) [%]	% activity at 100 µM (PRK2(h) (human)) [%]	% activity at 100 µM (SAPK3(h) (human)) [%]	% activity at 100 µM (Tie2(h) (human)) [%]	% activity at 100 µM (ZIPK(h) (human)) [%]
MMI-0300 (peptide)	86	91	49	130	74	8	77	98	82	78	29	119	128	33	84	26	28
MMI-0400 (peptide)	92	87	16	108	54	8	63	93	31	61	28	119	118	27	79	21	13
MMI-0500 (peptide)	87	65	2	196	83	10	7	60	90	0	9	118	95	7	24	22	1
